According to publication PMC6152455:

Experiments:
[1] = target: Human CD16a/FcγRIIIa 158V (human); test: SPR
[2] = target: Human CD16a/FcγRIIIa 158F (human) (UniProt P08637); test: SPR

Chain of Human CD16a/FcγRIIIa 158V (human) (P08637 17-208): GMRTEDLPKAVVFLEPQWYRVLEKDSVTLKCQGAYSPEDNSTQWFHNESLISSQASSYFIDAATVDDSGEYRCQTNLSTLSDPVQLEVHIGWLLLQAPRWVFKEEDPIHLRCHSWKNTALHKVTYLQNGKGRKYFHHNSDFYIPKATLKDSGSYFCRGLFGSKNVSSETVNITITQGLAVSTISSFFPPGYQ

Row | Kd [1] [µM] | Kd [2] [µM] | Substance
1 | 0.311 | 1.63 | T-mab (in-house made trastuzumab biosimilar) (antibody)
2 | 0.818 | 2.71 | P-mab (in-house made pertuzumab biosimilar) (antibody)
